Here are results for 29 molecules from patent US20140057830A1 (COMPLIX, published 2014).

The chains are these.
T1: human IL-23 (human, UniProt Q9NPF7 20-189; P29460 23-328)
T1 construct: Heterodimer p19/p40; in the ELISA captured on the plate through a biotinylated anti-p40 antibody (clone C8.6); also called cytokine IL-23 (eBioscience, 34-8239-85)
T1 sequence (looked up) 1: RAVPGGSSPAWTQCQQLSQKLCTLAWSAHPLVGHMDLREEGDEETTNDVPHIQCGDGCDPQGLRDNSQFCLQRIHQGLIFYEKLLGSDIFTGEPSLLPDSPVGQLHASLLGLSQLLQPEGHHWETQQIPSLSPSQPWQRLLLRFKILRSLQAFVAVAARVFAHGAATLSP
T1 sequence (looked up) 2: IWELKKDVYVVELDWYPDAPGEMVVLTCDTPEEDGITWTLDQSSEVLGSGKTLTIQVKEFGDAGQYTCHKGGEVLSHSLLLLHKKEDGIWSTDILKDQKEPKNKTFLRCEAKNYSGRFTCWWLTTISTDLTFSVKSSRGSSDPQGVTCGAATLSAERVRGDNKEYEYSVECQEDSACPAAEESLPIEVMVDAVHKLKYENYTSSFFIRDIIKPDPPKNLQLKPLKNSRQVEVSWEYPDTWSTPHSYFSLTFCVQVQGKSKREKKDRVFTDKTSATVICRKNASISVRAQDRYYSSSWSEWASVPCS

B1: SEQ ID NO 38 (designed binder)
chain: GSIEQIQKFIASIQESIARIQKSIYAMTGGSGGSGGGSIEQIQKQIAAIQKQIAAIQKQIYAMTGSGGGGSGGSIEQIQKQITAIARQIVAIIVQITAMTP
notes: Alphabody, AC12 library clone
B2: SEQ ID NO 20 (designed binder)
chain: GSIEQIQKVIARIQEVIASIQKYIYAMTGGSGGSGGGSIEQIQKQIAAIQKQIAAIQKQIYAMTGSGGGGSGGSIEQIQKQIGAIVTQILAIISQITAMTP
notes: Alphabody, AC12 library clone
B3: SEQ ID NO 5 (designed binder)
chain: GSIEQIQKFIANIQELIACIQKNIYAMTGGSGGSGGGSIEQIQKQIAAIQKQIAAIQKQIYAMTGSGGGGSGGSIEQIQKQITAIASQIYAIVAQITAMTP
notes: Alphabody, AC12 library clone
B4: SEQ ID NO 59 (designed binder)
chain: GSIEQIQKWIALIQEKIARIQKDIYAMTGGSGGSGGGSIEQIQKQIAAIQKQIAAIQKQIYAMTGSGGGGSGGSIEQIQKQINAIAGQILAIATQIMAMTP
notes: Alphabody, AC12 library clone
B5: SEQ ID NO 50 (designed binder)
chain: GSIEQIQKAIAKIQETIAFIQKSIYAMTGGSGGSGGGSIEQIQKQIAAIQKQIAAIQKQIYAMTGSGGGGSGGSIEQIQKQITAIAGQIYAILQQIFAMTP
notes: Alphabody, AC12 library clone
B6: SEQ ID NO 25 (designed binder)
chain: GSIEQIQKYIARIQEKIAYIQKMIYAMTGGSGGSGGGSIEQIQKQIAAIQKQIAAIQKQIYAMTGSGGGGSGGSIEQIQKQIIAIGSQILAILDQIYAMTP
notes: Alphabody, AC12 library clone
B7: SEQ ID NO 33 (designed binder)
chain: GSIEQIQKGIAPIQEMIASIQKVIYAMTGGSGGSGGGSIEQIQKQIAAIQKQIAAIQKQIYAMTGSGGGGSGGSIEQIQKQIMAIAFQIFAIMRQILAMTP
notes: Alphabody, AC12 library clone
B8: SEQ ID NO 31 (designed binder)
chain: GSIEQIQKTIARIQEGIAVIQKLIYAMTGGSGGSGGGSIEQIQKQIAAIQKQIAAIQKQIYAMTGSGGGGSGGSIEQIQKQIRAIVRQITAIMTQIFAMTP
notes: Alphabody, AC12 library clone
B9: SEQ ID NO 27 (designed binder)
chain: GSIEQIQKWIAQIQENIADIQKLIYAMTGGSGGSGGGSIEQIQKQIAAIQKQIAAIQKQIYAMTGSGGGGSGGSIEQIQKQIPAIAYQILAIIRQISAMTP
notes: Alphabody, AC12 library clone
B10: SEQ ID NO 42 (designed binder)
chain: GSIEQIQKVIAPIQEYIAIIQKYIYAMTGGSGGSGGGSIEQIQKQIAAIQKQIAAIQKQIYAMTGSGGGGSGGSIEQIQKQISAIMRQIYAIISQIQAMTP
notes: Alphabody, AC12 library clone
B11: SEQ ID NO 61 (designed binder)
chain: GSIEQIQKRIAGIQEYIAKIQKSIYAMTGGSGGSGGGSIEQIQKQIAAIQKQIAAIQKQIYAMTGSGGGGSGGSIEQIQKQISAISRQIVAIVSQILAMTP
notes: Alphabody, AC12 library clone
B12: SEQ ID NO 8 (designed binder)
chain: GSIEQIQKYIAPIQEIIAKIQKLIYAMTGGSGGSGGGSIEQIQKQIAAIQKQIAAIQKQIYAMTGSGGGGSGGSIEQIQKQIGAIISQIGAILGQIYAMTP
notes: Alphabody, AC12 library clone
B13: SEQ ID NO 9 (designed binder)
chain: GSIEQIQKKIATIQEYIAYIQKFIYAMTGGSGGSGGGSIEQIQKQIAAIQKQIAAIQKQIYAMTGSGGGGSGGSIEQIQKQIKAILGQIGAIIGQIWAMTP
notes: Alphabody, AC12 library clone
B14: SEQ ID NO 22 (designed binder)
chain: GSIEQIQKMIAPIQELIARIQKDIYAMTGGSGGSGGGSIEQIQKQIAAIQKQIAAIQKQIYAMTGSGGGGSGGSIEQIQKQIGAITRQILAILVQIGAMTP
notes: Alphabody, AC12 library clone
B15: SEQ ID NO 36 (designed binder)
chain: GSIEQIQKFIAPIQEYIAAIQKIIYAMTGGSGGSGGGSIEQIQKQIAAIQKQIAAIQKQIYAMTGSGGGGSGGSIEQIQKQIAAIASQIKAIVTQIVAMTP
notes: Alphabody, AC12 library clone
B16: SEQ ID NO 23 (designed binder)
chain: GSIEQIQKFIASIQECIARIQKTIYAMTGGSGGSGGGSIEQIQKQIAAIQKQIAAIQKQIYAMTGSGGGGSGGSIEQIQKQIKAIRTQIFAIFRQIYAMTP
notes: Alphabody, AC12 library clone
B17: SEQ ID NO 18 (designed binder)
chain: GSIEQIQKTIASIQEVIAAIQKYIYAMTGGSGGSGGGSIEQIQKQIAAIQKQIAAIQKQIYAMTGSGGGGSGGSIEQIQKQIAAIGSQIIAIVRQIRAMTP
notes: Alphabody, AC12 library clone
B18: SEQ ID NO 2 (designed binder)
chain: GSIEQIQKGIARIQEVIAKIQKGIYAMTGGSGGSGGGSIEQIQKQIAAIQKQIAAIQKQIYAMTGSGGGGSGGSIEQIQKQIVAITHQITAIIWQIWAMTP
notes: Alphabody, AC12 library clone
B19: SEQ ID NO 3 (designed binder)
chain: GSIEQIQKRIAFIQETIAWIQKNIYAMTGGSGGSGGGSIEQIQKQIAAIQKQIAAIQKQIYAMTGSGGGGSGGSIEQIQKQISAIARQIRAILGQIFAMTP
notes: Alphabody, AC12 library clone
B20: SEQ ID NO 43 (designed binder)
chain: GSIEQIQKLIASIQEYIATIQKLIYAMTGGSGGSGGGSIEQIQKQIAAIQKQIAAIQKQIYAMTGSGGGGSGGSIEQIQKQISAIMIQINAILGQIFAMTP
notes: Alphabody, AC12 library clone
B21: SEQ ID NO 19 (designed binder)
chain: GSIEQIQKTIAAIQECIARIQKAIYAMTGGSGGSGGGSIEQIQKQIAAIQKQIAAIQKQIYAMTGSGGGGSGGSIEQIQKQIRAIVSQISAILIQIGAMTP
notes: Alphabody, AC12 library clone
B22: SEQ ID NO 4 (designed binder)
chain: GSIEQIQKTIAMIQEYIAWIQKKIYAMTGGSGGSGGGSIEQIQKQIAAIQKQIAAIQKQIYAMTGSGGGGSGGSIEQIQKQIRAIVGQIMAILRQITAMTP
notes: Alphabody, AC12 library clone
B23: SEQ ID NO 6 (designed binder)
chain: GSIEQIQKGIALIQEWIAWIQKSIYAMTGGSGGSGGGSIEQIQKQIAAIQKQIAAIQKQIYAMTGSGGGGSGGSIEQIQKQILAISLQIMAILEQIMAMTP
notes: Alphabody, AC12 library clone
B24: SEQ ID NO 40 (designed binder)
chain: GSIEQIQKGIAIIQETIAYIQKSIYAMTGGSGGSGGGSIEQIQKQIAAIQKQIAAIQKQIYAMTGSGGGGSGGSIEQIQKQITAIARQITAIIAQIFAMTP
notes: Alphabody, AC12 library clone
B25: SEQ ID NO 29 (designed binder)
chain: GSIEQIQKLIARIQESIAMIQKKIYAMTGGSGGSGGGSIEQIQKQIAAIQKQIAAIQKQIYAMTGSGGGGSGGSIEQIQKQIIAIAKQILAIVSQIKAMTP
notes: Alphabody, AC12 library clone
B26: SEQ ID NO 47 (designed binder)
chain: GSIEQIQKKIAGIQEVIALIQKFIYAMTGGSGGSGGGSIEQIQKQIAAIQKQIAAIQKQIYAMTGSGGGGSGGSIEQIQKQIRAISSQIQAIVLQILAMTP
notes: Alphabody, AC12 library clone
B27: SEQ ID NO 13 (designed binder)
chain: GSIEQIQKRIAPIQECIAFIQKLIYAMTGGSGGSGGGSIEQIQKQIAAIQKQIAAIQKQIYAMTGSGGGGSGGSIEQIQKQITAIGRQIMAIFIQIWAMTP
notes: Alphabody, AC12 library clone
B28: SEQ ID NO 26 (designed binder)
chain: GSIEQIQKLIAVIQEYIALIQKKIYAMTGGSGGSGGGSIEQIQKQIAAIQKQIAAIQKQIYAMTGSGGGGSGGSIEQIQKQIKAIATQISAIIRQIFAMTP
notes: Alphabody, AC12 library clone
B29: SEQ ID NO 10 (designed binder)
chain: GSIEQIQKKIAVIQEVIAGIQKGIYAMTGGSGGSGGGSIEQIQKQIAAIQKQIAAIQKQIYAMTGSGGGGSGGSIEQIQKQISAIIIQITAIVKQIMAMTP
notes: Alphabody, AC12 library clone

In the assay the target is T1, human IL-23. The experiment in a line: phage ELISA; IL-23 captured by anti-p40 antibody. Here is the method:
The set-up of the ELISA was as follows. Neutravidin was immobilized on the plate at a concentration of 0.010 mg/ml in PBS (0.100 ml) for 1 hour at room temperature (RT). Plates were washed 5 times with PBS containing 0.05% Tween 20 (PBST) for 5 min. Subsequently, 0.1 ml Biotinylated anti-p40 antibody (100 nM) was added to the plates in PBS containing 0.1% BSA and incubated overnight at 4° C. or at RT for 1 hour. After incubation, plates were washed 5 times with PBST and blocked with PBS containing 0.1% BSA and 0.5% gelatin (0.120 ml/well) for at least 1 hour at room temperature or overnight at 4° C. After washing 5 times with PBST, 100 nM IL-23 (target) was added to 0.1 ml PBS, 0.1% BSA. For individual negative controls no IL-23 was added (background).
In the meantime, the bacteria plates were centrifuged at 1700 rpm for 10 min to pellet the bacteria. Plates with the immobilized IL-23 were washed 5 times with PBST and 0.050 ml of PBS with 0.2% BSA were added to the plate together with 0.050 ml of the bacterial culture supernatant containing phage. Plates were incubated for 1 to 1.5 hours at room temperature while shaking. Shaking of the plates enhanced the ELISA signals.
For orientation: An ELISA detects its analyte on a solid surface through an enzyme-linked reagent.
Take B1: the binding result is “binds”. Take B2: the binding result is given as “binds”. Next, B3: “binds”; B4: “binds”; B5: “binds”. In the case of B6, the binding result is listed as “binds”. As to B7, the binding result is on record as “binds”.

For the molecule B8, the binding result is “binds”. Next, B9: “binds”. Next, B10: “binds”. As for B11, the binding result is “binds”. Next, B12: “binds”; B13: “binds”; B14: “binds”. Next, B15: “binds”; B16: “binds”. Regarding B17, the binding result is listed as “binds”. Turning to B18, the binding result is “binds”. For B19, the binding result is “binds”.

Consider B20, for which the binding result is “binds”. B21: the binding result is given as “binds”. In the case of B22, the binding result is on record as “binds”. Take B23: the binding result was “binds”. Next, B24: “binds”. Next, B25: “binds”; B26: “binds”. For the molecule B27, the binding result was “binds”. As to B28, the binding result is recorded as “binds”. For B29, the binding result is recorded as “binds”.
